Measured values as given in IntAct's records for PubMed 18423204.

B1: Catenin beta-1 (Mus musculus), Q02248 (parent)
chain: MATQADLMELDMAMEPDRKAAVSHWQQQSYLDSGIHSGATTTAPSLSGKGNPEEEDVDTSQVLYEWEQGFSQSFTQEQVADIDGQYAMTRAQRVRAAMFPETLDEGMQIPSTQFDAAHPTNVQRLAEPSQMLKHAVVNLINYQDDAELATRAIPELTKLLNDEDQVVVNKAAVMVHQLSKKEASRHAIMRSPQMVSAIVRTMQNTNDVETARCTAGTLHNLSHHREGLLAIFKSGGIPALVKMLGSPVDSVLFYAITTLHNLLLHQEGAKMAVRLAGGLQKMVALLNKTNVKFLAITTDCLQILAYGNQESKLIILASGGPQALVNIMRTYTYEKLLWTTSRVLKVLSVCSSNKPAIVEAGGMQALGLHLTDPSQRLVQNCLWTLRNLSDAATKQEGMEGLLGTLVQLLGSDDINVVTCAAGILSNLTCNNYKNKMMVCQVGGIEALVRTVLRAGDREDITEPAICALRHLTSRHQEAEMAQNAVRLHYGLPVVVKLLHPPSHWPLIKATVGLIRNLALCPANHAPLREQGAIPRLVQLLVRAHQDTQRRTSMGGTQQQFVEGVRMEEIVEGCTGALHILARDVHNRIVIRGLNTIPLFVQLLYSPIENIQRVAAGVLCELAQDKEAAEAIEAEGATAPLTELLHSRNEGVATYAAAVLFRMSEDKPQDYKKRLSVELTSSLFRTEPMAWNETADLGLDIGAQGEALGYRQDDPSYRSFHSGGYGQDALGMDPMMEHEMGGHHPGADYPVDGLPDLGHAQDLMDGLPPGDSNQLAWFDTDL

Variants of: B1
Details: with MAPK9, P45984-1

Variant | effect of a mutation on the interaction
S191A;S246A;S605A | disrupting interaction
S191A | disrupting interaction
S605A | decreasing interaction
S246A | decreasing interaction
